One molecule from patent US20110059095A1 (Regeneron, published 2011) can be followed below.

For assay [1], the target named is T1, full length human PAR-2 (human, UniProt P55085 26-397).
T1 construct: overexpressed on HEK293-derived 293/D9 cells; also called 293/D9/hPAR-2rec cells
As to the kind of experiment: MSD cell binding. The gist of the method: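 Antibodies, two-fold dilutions from 100 nM to 0.098 nM, bound for 1 h at room temperature to HEK293/D9 cells stably expressing human or mouse PAR-2, detected by sulfo-tagged anti-human IgG electrochemiluminescence. Parental 293/D9 signal was subtracted; EC50 and Bmax came from sigmoidal dose-response fits.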

Assay [2] has as its target T2, Peptide A (human PAR-2), unbiotinylated (Human).
T2 construct: also called Peptide A No Biotin
T2 peptide: GTNRSSKGRSLIGKVDGT
As to the kind of experiment: SPR, antibody captured. As for the experimental part:
(§1) Equilibrium dissociation constants (KD values) for antigen binding to selected purified PAR-2 antibodies were determined by surface kinetics using a real-time surface plasmon resonance biosensor assay. Antibody was captured on either a rabbit anti-mouse IgG polyclonal antibody (GE Healthcare, Piscataway, N.J.) surface or a goat anti-human IgG polyclonal antibody (Jackson Immuno Research Lab, West Grove, Pa.) surface created through direct amine chemical coupling to a BIACORE™ CM5 sensor chip to form a captured antibody surface. […] Antigen-antibody binding and dissociation were monitored in real time at room temperature. Kinetic analysis was performed to calculate KD and half-life of antigen/antibody complex dissociation (Table 10). For those antibodies where no T_{1/2} value is shown, steady state analysis was used to calculate the KD value. NB: no binding observed under current experimental conditions. ND: not determined.

Assay [3] concerns the target T3, Peptide F (monkey PAR-2), N-terminal biotinylated (Monkey (Macaca mulatta), N-terminal biotin via G4S linker).
T3 construct: also called Peptide F N-Term
As to the kind of experiment: SPR, antibody captured. As for the experimental part: as §1

Assay [4] concerns the target T4, Peptide B (human PAR-2), N-terminal biotinylated (Human).
T4 construct: also called Peptide B N-Term
T4 peptide: Biotin-GGGGSSLIGKVDGTSHVTG
As to the kind of experiment: SPR, peptide immobilized.

Assay [5] deals with T3, Peptide F (monkey PAR-2), N-terminal …. Description: SPR, peptide immobilized.
In assay [6] the target is T5, Peptide A (human PAR-2), N-terminal biotinylated (Human, N-terminal biotin via G4S linker).
T5 construct: also called Peptide A N-Term
T5 peptide: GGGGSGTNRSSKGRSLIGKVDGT
Description: SPR, peptide immobilized.

Assay [7] has as its target T6, Peptide A (human PAR-2), C-terminal biotinylated (Human, C-terminal biotin via G4S linker).
T6 construct: also called Peptide A C-Term
Description: SPR, peptide immobilized. The gist of the method: (§2)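 Neutravidin was amine-coupled to a C1 or CM5 chip, and N- or C-terminal biotinylated peptide was captured at low density (<1RU). Purified antibody at 5–100 μg/ml was injected at 50 μl/min for 300 s, with binding and dissociation monitored in real time at 25° C. KD was derived from surface kinetics.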

The target in assay [8] is T7, Peptide B (human PAR-2), C-terminal biotinylated (Human, not fully specified).
T7 construct: also called Peptide B C-Term
T7 peptide: SLIGKVDGTSHVTGGGGGS-biotin
Description: SPR, peptide immobilized. The gist of the method: as §2

In assay [9] the target is T1, full length human PAR-2. Description: cell-based or functional assay.
For assay [10], the target named is T6, Peptide A (human PAR-2), C-terminal …. Description: peptide ELISA titration.
Assay [11] concerns the target T3, Peptide F (monkey PAR-2), N-terminal …. As to the kind of experiment: peptide ELISA titration.
In assay [12] the target is T2, Peptide A (human PAR-2), unbiotinylated. Description: peptide ELISA titration.
The target in assay [13] is T5, Peptide A (human PAR-2), N-terminal …. As to the kind of experiment: peptide ELISA titration.

Where no end group is shown, it is not given here. The star is where a group is joined. Biotin = O=C1N[C@H]2[C@H](CS[C@H]2CCCCC(=O)*)N1

T1 sequence (P55085 26-397 G138A limits assumed): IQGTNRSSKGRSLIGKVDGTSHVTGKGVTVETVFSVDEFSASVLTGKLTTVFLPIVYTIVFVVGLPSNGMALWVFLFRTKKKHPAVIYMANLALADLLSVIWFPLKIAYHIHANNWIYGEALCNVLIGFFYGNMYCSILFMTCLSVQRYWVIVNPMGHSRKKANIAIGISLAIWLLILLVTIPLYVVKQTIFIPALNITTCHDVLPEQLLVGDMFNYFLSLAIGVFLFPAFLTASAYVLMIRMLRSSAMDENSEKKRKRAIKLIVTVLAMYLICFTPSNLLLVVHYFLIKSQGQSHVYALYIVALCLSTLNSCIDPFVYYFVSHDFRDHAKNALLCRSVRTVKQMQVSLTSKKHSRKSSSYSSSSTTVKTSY
T3 sequence (peptide, as listed by the source): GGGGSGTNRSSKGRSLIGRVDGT

B1: H4H583P (antibody, human IgG4, V domains shown)
VH: QVQLVESGGGVVQPGMSLRLSCTASGFTFRRYGMHWVRQAPGKGLEWVAVIWYDGSNKYYADSVKGRFTITRDNSKNTLYLQMNSLRAEDTAIYFCASEITIGDWFDPRGQGTLVTVSS
VL: AIQMTQSPSSLSASVGDRVTITCRASQGIRNDLGWFQQKPGKVPKLLIYAASTLHSGVPSRFSGSGFGTDFTLTISSLQPEDFATYYCLQDFNYPLTFGGGTKVEIK
notes: also called H1H583P variable regions
For the molecule B1, the Bmax in assay [1] was found to be 13300 MSD Unit. The concentration giving a half-maximal response (EC50) was found to be 2.12 nM in [1]; 0.018 nM in assay [10]; 0.013 nM in [11]; 0.008 nM in assay [12]; 0.015 nM in assay [13]. Further, the dissociation constant (Kd) worked out at 37.1 nM in [2]; 112 nM in [3]; 0.291 nM in assay [5]; 0.412 nM in assay [6]; 0.898 nM in [7]. Besides, the T1/2 was 0.37 min in assay [2]; 0.47 min in [3]; 73 min in assay [5]; 46 min in [6]; 34 min in [7]. The binding result in assay [4] and in [8] was “no binding” in each case. For the same molecule, the “IC50, NF-kB-luciferase, 20 nM Trypsin” value in assay [9] was 14 nM.
